Data reported in patent US20210246166A1 (Bayer, published 2021).
Numbered stars: 1 amine (or outer) side, 2 acyl side, 3 side chain; on linkers, the order of the positions; unused ones are H or OH. Bridge positions count the residues as written; N and C are the ends. Square brackets hold non-standard residues; d marks the D form. Primed or numbered codes have the meaning given here. Ends that are not written are not given here. * marks the point of attachment. Leu(4-F)″ = 4-fluoro-L-leucine, CC(C)(F)C[C@H](N[*:1])C(=O)[*:2]; Oic = O=C(O)[C@@H]1C[C@@H]2CCCC[C@@H]2N1; Phe(2-Cl) = N[C@@H](Cc1ccccc1Cl)C(=O)O; tBuAla = CC(C)(C)C[C@H](N)C(=O)O; Chg = N[C@H](C(=O)O)C1CCCCC1; NMePro = CN1CCC[C@H]1C(=O)*; NMeC = CN[C@@H](CS)C(=O)O; Orn = NCCC[C@H](N)C(=O)O; Nva = CCC[C@H](N)C(=O)O; Abu = CC[C@H](N)C(=O)O; Sar = CNCC(=O)O

B1: Example 230: (Abu)-IC+SRSLPPIC+IPD-NH2 (peptide)
peptide: [Abu]ICSRSLPPICIPD-NH2
modifications: disulfide 3-11; N-terminus assumed
SMILES: CC[C@H](N)C(=O)N[C@H](C(=O)N[C@H]1CSSC[C@@H](C(=O)N[C@H](C(=O)N2CCC[C@H]2C(=O)N[C@@H](CC(=O)O)C(N)=O)[C@@H](C)CC)NC(=O)[C@H]([C@@H](C)CC)NC(=O)[C@@H]2CCCN2C(=O)[C@@H]2CCCN2C(=O)[C@H](CC(C)C)NC(=O)[C@H](CO)NC(=O)[C@H](CCCNC(=N)N)NC(=O)[C@H](CO)NC1=O)[C@@H](C)CC
B2: Example 216: (Nva)-IC+SRSLPPIC+IPD-NH2 (peptide)
peptide: [Nva]ICSRSLPPICIPD-NH2
modifications: disulfide 3-11; N-terminus assumed
SMILES: CCC[C@H](N)C(=O)N[C@H](C(=O)N[C@H]1CSSC[C@@H](C(=O)N[C@H](C(=O)N2CCC[C@H]2C(=O)N[C@@H](CC(=O)O)C(N)=O)[C@@H](C)CC)NC(=O)[C@H]([C@@H](C)CC)NC(=O)[C@@H]2CCCN2C(=O)[C@@H]2CCCN2C(=O)[C@H](CC(C)C)NC(=O)[C@H](CO)NC(=O)[C@H](CCCNC(=N)N)NC(=O)[C@H](CO)NC1=O)[C@@H](C)CC
B3: Example 225: (Orn)-IC+SRSLPP-(Chg)-C+IPD-OH (peptide)
peptide: [Orn]ICSRSLPP[Chg]CIPD-OH
modifications: disulfide 3-11; N-terminus assumed
SMILES: CC[C@H](C)[C@H](NC(=O)[C@@H](N)CCCN)C(=O)N[C@H]1CSSC[C@@H](C(=O)N[C@H](C(=O)N2CCC[C@H]2C(=O)N[C@@H](CC(=O)O)C(=O)O)[C@@H](C)CC)NC(=O)[C@H](C2CCCCC2)NC(=O)[C@@H]2CCCN2C(=O)[C@@H]2CCCN2C(=O)[C@H](CC(C)C)NC(=O)[C@H](CO)NC(=O)[C@H](CCCNC(=N)N)NC(=O)[C@H](CO)NC1=O
B4: Example 236: (Orn)-IC+SRSLPPIC+I-NH2 (peptide)
peptide: [Orn]ICSRSLPPICI-NH2
modifications: disulfide 3-11; N-terminus assumed
SMILES: CC[C@H](C)[C@H](NC(=O)[C@@H]1CSSC[C@H](NC(=O)[C@@H](NC(=O)[C@@H](N)CCCN)[C@@H](C)CC)C(=O)N[C@@H](CO)C(=O)N[C@@H](CCCNC(=N)N)C(=O)N[C@@H](CO)C(=O)N[C@@H](CC(C)C)C(=O)N2CCC[C@H]2C(=O)N2CCC[C@H]2C(=O)N[C@@H]([C@@H](C)CC)C(=O)N1)C(N)=O
B5: Example 247: AIC+SRSLPP-(Chg)-C+I-NH2 (peptide)
peptide: AICSRSLPP[Chg]CI-NH2
modifications: disulfide 3-11; N-terminus assumed
SMILES: CC[C@H](C)[C@H](NC(=O)[C@@H]1CSSC[C@H](NC(=O)[C@@H](NC(=O)[C@H](C)N)[C@@H](C)CC)C(=O)N[C@@H](CO)C(=O)N[C@@H](CCCNC(=N)N)C(=O)N[C@@H](CO)C(=O)N[C@@H](CC(C)C)C(=O)N2CCC[C@H]2C(=O)N2CCC[C@H]2C(=O)N[C@@H](C2CCCCC2)C(=O)N1)C(N)=O
B6: Example 222: AIC+SRSLPP-(Chg)-C+IPD-OH (peptide)
peptide: AICSRSLPP[Chg]CIPD-OH
modifications: disulfide 3-11; N-terminus assumed
SMILES: CC[C@H](C)[C@H](NC(=O)[C@H](C)N)C(=O)N[C@H]1CSSC[C@@H](C(=O)N[C@H](C(=O)N2CCC[C@H]2C(=O)N[C@@H](CC(=O)O)C(=O)O)[C@@H](C)CC)NC(=O)[C@H](C2CCCCC2)NC(=O)[C@@H]2CCCN2C(=O)[C@@H]2CCCN2C(=O)[C@H](CC(C)C)NC(=O)[C@H](CO)NC(=O)[C@H](CCCNC(=N)N)NC(=O)[C@H](CO)NC1=O
B7: Example 223: WIC+SRS-((tBu)A)-PPI-((N-Me)C)+I-NH2 (peptide)
peptide: WICSRS[tBuAla]PPI[NMeC]I-NH2
modifications: disulfide 3-11; N-terminus assumed
SMILES: CC[C@H](C)[C@H](NC(=O)[C@@H]1CSSC[C@H](NC(=O)[C@@H](NC(=O)[C@@H](N)Cc2c[nH]c3ccccc23)[C@@H](C)CC)C(=O)N[C@@H](CO)C(=O)N[C@@H](CCCNC(=N)N)C(=O)N[C@@H](CO)C(=O)N[C@@H](CC(C)(C)C)C(=O)N2CCC[C@H]2C(=O)N2CCC[C@H]2C(=O)N[C@@H]([C@@H](C)CC)C(=O)N1C)C(N)=O
B8: Example 210: AIC+SRS-((tBu)A)-PPIC+IDD-OH (peptide)
peptide: AICSRS[tBuAla]PPICIDD-OH
modifications: disulfide 3-11; N-terminus assumed
SMILES: CC[C@H](C)[C@H](NC(=O)[C@H](C)N)C(=O)N[C@H]1CSSC[C@@H](C(=O)N[C@H](C(=O)N[C@@H](CC(=O)O)C(=O)N[C@@H](CC(=O)O)C(=O)O)[C@@H](C)CC)NC(=O)[C@H]([C@@H](C)CC)NC(=O)[C@@H]2CCCN2C(=O)[C@@H]2CCCN2C(=O)[C@H](CC(C)(C)C)NC(=O)[C@H](CO)NC(=O)[C@H](CCCNC(=N)N)NC(=O)[C@H](CO)NC1=O
B9: Example 248: AIC+SRS-((4-Fluoro)L)-PPIC+IPD-NH2 (peptide)
peptide: AICSRS[Leu(4-F)″]PPICIPD-NH2
modifications: disulfide 3-11; N-terminus assumed
SMILES: CC[C@H](C)[C@H](NC(=O)[C@H](C)N)C(=O)N[C@H]1CSSC[C@@H](C(=O)N[C@H](C(=O)N2CCC[C@H]2C(=O)N[C@@H](CC(=O)O)C(N)=O)[C@@H](C)CC)NC(=O)[C@H]([C@@H](C)CC)NC(=O)[C@@H]2CCCN2C(=O)[C@@H]2CCCN2C(=O)[C@H](CC(C)(C)F)NC(=O)[C@H](CO)NC(=O)[C@H](CCCNC(=N)N)NC(=O)[C@H](CO)NC1=O
B10: Example 231: AIC+SRS-((tBu)A)-P-(Oic)-I-((N-Me)C)+IPD-OH (peptide)
peptide: AICSRS[tBuAla]P[Oic]I[NMeC]IPD-OH
modifications: disulfide 3-11; N-terminus assumed
SMILES: CC[C@H](C)[C@H](NC(=O)[C@H](C)N)C(=O)N[C@H]1CSSC[C@@H](C(=O)N[C@H](C(=O)N2CCC[C@H]2C(=O)N[C@@H](CC(=O)O)C(=O)O)[C@@H](C)CC)N(C)C(=O)[C@H]([C@@H](C)CC)NC(=O)[C@@H]2C[C@@H]3CCCC[C@@H]3N2C(=O)[C@@H]2CCCN2C(=O)[C@H](CC(C)(C)C)NC(=O)[C@H](CO)NC(=O)[C@H](CCCNC(=N)N)NC(=O)[C@H](CO)NC1=O
B11: Example 246: ((N-Me)G)-IC+SRS-((tBu)A)-PPIC+IPD-OH (peptide)
peptide: [Sar]ICSRS[tBuAla]PPICIPD-OH
modifications: disulfide 3-11; N-terminus assumed
SMILES: CC[C@H](C)[C@H](NC(=O)CNC)C(=O)N[C@H]1CSSC[C@@H](C(=O)N[C@H](C(=O)N2CCC[C@H]2C(=O)N[C@@H](CC(=O)O)C(=O)O)[C@@H](C)CC)NC(=O)[C@H]([C@@H](C)CC)NC(=O)[C@@H]2CCCN2C(=O)[C@@H]2CCCN2C(=O)[C@H](CC(C)(C)C)NC(=O)[C@H](CO)NC(=O)[C@H](CCCNC(=N)N)NC(=O)[C@H](CO)NC1=O
B12: Example 250: ((N-Me)P)-IC+SRS-((tBu)A)-PPIC+IPD-NH2 (peptide)
peptide: [NMePro]ICSRS[tBuAla]PPICIPD-NH2
modifications: disulfide 3-11
SMILES: CC[C@H](C)[C@H](NC(=O)[C@@H]1CCCN1C)C(=O)N[C@H]1CSSC[C@@H](C(=O)N[C@H](C(=O)N2CCC[C@H]2C(=O)N[C@@H](CC(=O)O)C(N)=O)[C@@H](C)CC)NC(=O)[C@H]([C@@H](C)CC)NC(=O)[C@@H]2CCCN2C(=O)[C@@H]2CCCN2C(=O)[C@H](CC(C)(C)C)NC(=O)[C@H](CO)NC(=O)[C@H](CCCNC(=N)N)NC(=O)[C@H](CO)NC1=O
B13: Example 238: AIC+SRS-((2-Chloro)F)-PPI-((N-Me)C)+IPD-NH2 (peptide)
peptide: AICSRS[Phe(2-Cl)]PPI[NMeC]IPD-NH2
modifications: disulfide 3-11; N-terminus assumed
SMILES: CC[C@H](C)[C@H](NC(=O)[C@H](C)N)C(=O)N[C@H]1CSSC[C@@H](C(=O)N[C@H](C(=O)N2CCC[C@H]2C(=O)N[C@@H](CC(=O)O)C(N)=O)[C@@H](C)CC)N(C)C(=O)[C@H]([C@@H](C)CC)NC(=O)[C@@H]2CCCN2C(=O)[C@@H]2CCCN2C(=O)[C@H](Cc2ccccc2Cl)NC(=O)[C@H](CO)NC(=O)[C@H](CCCNC(=N)N)NC(=O)[C@H](CO)NC1=O
B14: Example 234: AIC+SRS-((tBu)A)-P-(Oic)-I-C+IPD-NH2 (peptide)
peptide: AICSRS[tBuAla]P[Oic]ICIPD-NH2
modifications: disulfide 3-11; N-terminus assumed
SMILES: CC[C@H](C)[C@H](NC(=O)[C@H](C)N)C(=O)N[C@H]1CSSC[C@@H](C(=O)N[C@H](C(=O)N2CCC[C@H]2C(=O)N[C@@H](CC(=O)O)C(N)=O)[C@@H](C)CC)NC(=O)[C@H]([C@@H](C)CC)NC(=O)[C@@H]2C[C@@H]3CCCC[C@@H]3N2C(=O)[C@@H]2CCCN2C(=O)[C@H](CC(C)(C)C)NC(=O)[C@H](CO)NC(=O)[C@H](CCCNC(=N)N)NC(=O)[C@H](CO)NC1=O

Target: T1, recombinant rat MASP1 active protease (amino acids 302-704, C-terminal His Tag) (rat, UniProt Q8CHN8 302-704)
T1 sequence: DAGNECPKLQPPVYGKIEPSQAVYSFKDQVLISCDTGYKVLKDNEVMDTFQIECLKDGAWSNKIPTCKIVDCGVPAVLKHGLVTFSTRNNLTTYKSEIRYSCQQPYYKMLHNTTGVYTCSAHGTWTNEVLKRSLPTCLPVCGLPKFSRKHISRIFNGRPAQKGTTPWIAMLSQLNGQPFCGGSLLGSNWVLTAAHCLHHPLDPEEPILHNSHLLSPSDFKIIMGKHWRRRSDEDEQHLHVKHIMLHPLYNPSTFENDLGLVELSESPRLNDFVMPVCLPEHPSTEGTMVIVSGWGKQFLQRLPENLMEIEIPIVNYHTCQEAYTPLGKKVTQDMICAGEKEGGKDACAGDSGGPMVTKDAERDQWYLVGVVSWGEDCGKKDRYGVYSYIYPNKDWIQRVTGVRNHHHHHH
Assay: cell-based or functional assay

With [Sar]ICSRSLPPICIPD-NH2 (disulfide 3-11; also: HCl salt) [Example 228: ((N-Me)G)-IC+SRSLPPIC+IPD-NH2 (HCl salt)] as the binder, how does the “rat MASP1 IC50” value read?
The value was 260 nM.

For B1, which “rat MASP1 IC50” value is on record?
The value was 370 nM.

Which “rat MASP1 IC50” value does the source give for B2 here?
Its value is 240 nM.

For B3, which “rat MASP1 IC50” value is on record?
The value was 230 nM.

B4 was tested. Which “rat MASP1 IC50” value did it give?
The value was 890 nM.

For B5, which “rat MASP1 IC50” value is on record?
The value was 700 nM.

Which “rat MASP1 IC50” value does the source give for B6 here?
Its value is 240 nM.

Which “rat MASP1 IC50” value does the source give for B7 here?
Its value is 120 nM.

Which “rat MASP1 IC50” value does the source give for B8 here?
The value was 19 nM.

B9 was tested. Which “rat MASP1 IC50” value did it give?
Its value is 260 nM.

With AICSRSL[(4aR,6aR,9S,11aS)‑11‑Oxo‑2,3,4,4a,6a,7,8,9,11,11a‑decahydro‑1H‑pyrido(3,2-e)pyrrolo(1,2-a)azepine‑9‑carboxylic acid]ICIPD-NH2 (disulfide 3-10) as the binder, how does the “rat MASP1 IC50” value read?
Its value is 130 nM.

How did the “rat MASP1 IC50” value turn out when B10 was run?
The value was 38 nM.

Which “rat MASP1 IC50” value does the source give for [(N,N-diMe)A]ICSRS[tBuAla]PPICIPD-NH2 (disulfide 3-11) [Example 243: ((N,N-diMe)A)-IC+SRS-((tBu)A)-PPIC+IPD-NH2] here?
Its value is 140 nM.

For B11, which “rat MASP1 IC50” value is on record?
Its value is 78 nM.

Which “rat MASP1 IC50” value does the source give for B12 here?
The value was 77 nM.

How did the “rat MASP1 IC50” value turn out when B13 was run?
The value was 150 nM.

B14 was tested. Which “rat MASP1 IC50” value did it give?
Its value is 78 nM.
